Reference: the supplement of paper PMC9112550, “Optimization of the antimicrobial peptide Bac7 by deep mutational scanning” (BMC Biology, 2022)

Test system: Escherichia coli TOP10
Assay: shrunken log2 fold change of peptide-encoding DNA abundance (4.5 h post-induction vs induction); higher = less antimicrobial activity (less host growth inhibition)
Conditions: time post-induction: 4.5 h; library: site-saturation at positions 5, 18, 19, 20
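Also: peptides expressed intracellularly from a pBAD plasmid library in pooled LB shake-flask culture, induced with 0.3% L-arabinose, DNA abundance read by NGS, three biological replicates, DESeq2 with apeglm shrinkage.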

Row | Sequence | shrunken log2 fold change
1 | RRIRGRPPRLPRPRPRPVHCPRP | 0.0385
2 | RRIRARPPRLPRPRPRPMQRPRP | 0.383
3 | RRIRHRPPRLPRPRPRPWSPPRP | -0.697
4 | RRIRARPPRLPRPRPRPHVMPRP | -0.0593
5 | RRIRGRPPRLPRPRPRPAQLPRP | 0.435
6 | RRIRWRPPRLPRPRPRPSGKPRP | -0.0778
7 | RRIRQRPPRLPRPRPRPLNPPRP | -0.303
8 | RRIRRRPPRLPRPRPRPWYNPRP | -0.468
9 | RRIRVRPPRLPRPRPRPSQDPRP | -0.221
10 | RRIRRRPPRLPRPRPRPYPDPRP | -0.0558
11 | RRIRWRPPRLPRPRPRPSMYPRP | -0.326
12 | RRIRLRPPRLPRPRPRPCNLPRP | 0.034
13 | RRIRIRPPRLPRPRPRPDLWPRP | 0.078
14 | RRIRCRPPRLPRPRPRPIYNPRP | -0.761
15 | RRIRARPPRLPRPRPRPMKAPRP | 0.0595
16 | RRIRGRPPRLPRPRPRPPYTPRP | 0.145
17 | RRIRGRPPRLPRPRPRPWWAPRP | 0.193
18 | RRIRDRPPRLPRPRPRPQHGPRP | 0.587
19 | RRIRVRPPRLPRPRPRPPKRPRP | -0.193
20 | RRIRCRPPRLPRPRPRPVETPRP | 0.0672
21 | RRIRKRPPRLPRPRPRPMGEPRP | -0.0199
22 | RRIRRRPPRLPRPRPRPAVRPRP | 0.0847
23 | RRIRKRPPRLPRPRPRPRMWPRP | 0.377
24 | RRIRHRPPRLPRPRPRPAASPRP | 0.144
25 | RRIRWRPPRLPRPRPRPGLVPRP | 0.449

Row | Sequence | shrunken log2 fold change
26 | RRIRFRPPRLPRPRPRPAQLPRP | 0.36
27 | RRIRTRPPRLPRPRPRPFWDPRP | 0.126
28 | RRIRDRPPRLPRPRPRPEEWPRP | 0.0446
29 | RRIRQRPPRLPRPRPRPFAKPRP | -0.0663
30 | RRIRMRPPRLPRPRPRPTPPPRP | 1.17
31 | RRIRWRPPRLPRPRPRPCVKPRP | -0.0416
32 | RRIRYRPPRLPRPRPRPFMPPRP | -0.323
33 | RRIRARPPRLPRPRPRPCNMPRP | -0.253
34 | RRIRWRPPRLPRPRPRPLTRPRP | 2.04
35 | RRIRPRPPRLPRPRPRPQIKPRP | -0.282
36 | RRIRPRPPRLPRPRPRPHISPRP | -0.422
37 | RRIRHRPPRLPRPRPRPVVEPRP | -0.0145
38 | RRIRCRPPRLPRPRPRPDVYPRP | 0.0165
39 | RRIRPRPPRLPRPRPRPGAEPRP | 0.798
40 | RRIRFRPPRLPRPRPRPYMGPRP | -0.225
41 | RRIRMRPPRLPRPRPRPVSNPRP | 0.499
42 | RRIRLRPPRLPRPRPRPCGHPRP | -0.0228
43 | RRIRWRPPRLPRPRPRPACIPRP | 0.0736
44 | RRIRPRPPRLPRPRPRPTHVPRP | 0.317
45 | RRIRFRPPRLPRPRPRPICQPRP | -0.182
46 | RRIRKRPPRLPRPRPRPGKLPRP | -0.208
47 | RRIRRRPPRLPRPRPRPKRYPRP | 0.00167
48 | RRIRNRPPRLPRPRPRPRNVPRP | -0.3
49 | RRIRSRPPRLPRPRPRPTYDPRP | -0.262
50 | RRIRKRPPRLPRPRPRPYYGPRP | -0.101

Row | Sequence | shrunken log2 fold change
51 | RRIRARPPRLPRPRPRPRHSPRP | -0.00589
52 | RRIRFRPPRLPRPRPRPRETPRP | 0.0137
53 | RRIRWRPPRLPRPRPRPGKDPRP | -0.222
54 | RRIRDRPPRLPRPRPRPQCVPRP | 0.0602
55 | RRIRWRPPRLPRPRPRPWNMPRP | -0.101
56 | RRIRARPPRLPRPRPRPISDPRP | 0.266
57 | RRIRTRPPRLPRPRPRPGFHPRP | -0.19
58 | RRIRKRPPRLPRPRPRPMTCPRP | 0.0478
59 | RRIRSRPPRLPRPRPRPIIPPRP | -0.188
60 | RRIRTRPPRLPRPRPRPQQQPRP | -0.0474
61 | RRIRCRPPRLPRPRPRPSLQPRP | -0.455
62 | RRIRARPPRLPRPRPRPIHMPRP | 0.0203
63 | RRIRIRPPRLPRPRPRPSLYPRP | -0.535
64 | RRIRIRPPRLPRPRPRPYHLPRP | -0.115
65 | RRIRVRPPRLPRPRPRPCKMPRP | -0.159
66 | RRIRSRPPRLPRPRPRPPKLPRP | -0.11
67 | RRIRVRPPRLPRPRPRPFFNPRP | -0.32
68 | RRIRLRPPRLPRPRPRPLYCPRP | -0.366
69 | RRIRGRPPRLPRPRPRPEHKPRP | 0.464
70 | RRIRKRPPRLPRPRPRPWVMPRP | -0.251
71 | RRIRKRPPRLPRPRPRPYVPPRP | -0.423
72 | RRIRIRPPRLPRPRPRPITNPRP | -0.176
73 | RRIRERPPRLPRPRPRPKGSPRP | 0.00854
74 | RRIRSRPPRLPRPRPRPTNKPRP | -0.328
75 | RRIRHRPPRLPRPRPRPLENPRP | 0.00854

Row | Sequence | shrunken log2 fold change
76 | RRIRHRPPRLPRPRPRPQFRPRP | -0.0324
77 | RRIRHRPPRLPRPRPRPADCPRP | -0.395
78 | RRIRQRPPRLPRPRPRPENKPRP | -0.578
79 | RRIRQRPPRLPRPRPRPCLQPRP | -0.112
80 | RRIRLRPPRLPRPRPRPKKSPRP | 0.018
81 | RRIRVRPPRLPRPRPRPYPDPRP | -0.293
82 | RRIRNRPPRLPRPRPRPCANPRP | 0.0435
83 | RRIRKRPPRLPRPRPRPYFHPRP | -0.225
84 | RRIRHRPPRLPRPRPRPPYTPRP | -0.266
85 | RRIRERPPRLPRPRPRPVWHPRP | -0.154
86 | RRIRWRPPRLPRPRPRPKHGPRP | 0.186
87 | RRIRDRPPRLPRPRPRPMSTPRP | 0.0569
88 | RRIRMRPPRLPRPRPRPGMAPRP | 1.19
89 | RRIRKRPPRLPRPRPRPNHIPRP | -0.358
90 | RRIRYRPPRLPRPRPRPLMQPRP | -0.283
91 | RRIRMRPPRLPRPRPRPDHQPRP | 0.143
92 | RRIRWRPPRLPRPRPRPQDEPRP | -0.143
93 | RRIRLRPPRLPRPRPRPIAVPRP | -0.16
94 | RRIRARPPRLPRPRPRPVSHPRP | 0.101
95 | RRIRMRPPRLPRPRPRPVNDPRP | -0.00185
96 | RRIRRRPPRLPRPRPRPTGKPRP | 0.901
97 | RRIRYRPPRLPRPRPRPTNCPRP | -1.27
98 | RRIRTRPPRLPRPRPRPITHPRP | -0.0526
99 | RRIRYRPPRLPRPRPRPRRWPRP | 0.309
100 | RRIRDRPPRLPRPRPRPEVRPRP | 1.91

Row | Sequence | shrunken log2 fold change
101 | RRIRDRPPRLPRPRPRPKKTPRP | -0.0142
102 | RRIRNRPPRLPRPRPRPEVFPRP | 0.0362
103 | RRIRRRPPRLPRPRPRPDQEPRP | 0.0223
104 | RRIRNRPPRLPRPRPRPLVRPRP | -0.372
105 | RRIRNRPPRLPRPRPRPCDAPRP | -0.195
106 | RRIRVRPPRLPRPRPRPWCPPRP | 0.0662
107 | RRIRGRPPRLPRPRPRPIYTPRP | 0.173
108 | RRIRDRPPRLPRPRPRPLWMPRP | 0.0442
109 | RRIRWRPPRLPRPRPRPENNPRP | -0.0683
110 | RRIRPRPPRLPRPRPRPKFPPRP | 0.119
111 | RRIRTRPPRLPRPRPRPWQPPRP | -0.0263
112 | RRIRRRPPRLPRPRPRPQSWPRP | 0.519
113 | RRIRTRPPRLPRPRPRPSSSPRP | -0.164
114 | RRIRIRPPRLPRPRPRPPWKPRP | 0.089
115 | RRIRIRPPRLPRPRPRPNALPRP | -0.245
116 | RRIRVRPPRLPRPRPRPCPTPRP | -0.17
117 | RRIRSRPPRLPRPRPRPIHNPRP | -0.415
118 | RRIRIRPPRLPRPRPRPGYWPRP | -0.0497
119 | RRIRVRPPRLPRPRPRPAANPRP | -0.00167
120 | RRIRIRPPRLPRPRPRPIKLPRP | -0.289
121 | RRIRNRPPRLPRPRPRPRLEPRP | 0.317
122 | RRIRARPPRLPRPRPRPHMAPRP | -0.183
123 | RRIRIRPPRLPRPRPRPQINPRP | -0.776
124 | RRIRCRPPRLPRPRPRPIARPRP | 0.19
125 | RRIRCRPPRLPRPRPRPLIGPRP | -0.0236

Row | Sequence | shrunken log2 fold change
126 | RRIRARPPRLPRPRPRPTMQPRP | 0.418
127 | RRIRDRPPRLPRPRPRPAQRPRP | 0.152
128 | RRIRCRPPRLPRPRPRPHSLPRP | -0.493
129 | RRIRERPPRLPRPRPRPDKKPRP | 0.0282
130 | RRIRVRPPRLPRPRPRPAWHPRP | 0.657
131 | RRIRVRPPRLPRPRPRPDLFPRP | -0.045
132 | RRIRYRPPRLPRPRPRPCEDPRP | -0.371
133 | RRIRQRPPRLPRPRPRPSDLPRP | -0.333
134 | RRIRTRPPRLPRPRPRPKGVPRP | 0.253
135 | RRIRRRPPRLPRPRPRPQPCPRP | -0.101
136 | RRIRSRPPRLPRPRPRPLGTPRP | -0.216
137 | RRIRGRPPRLPRPRPRPPKMPRP | 0.348
138 | RRIRARPPRLPRPRPRPNQGPRP | 0.392
139 | RRIRGRPPRLPRPRPRPVQMPRP | 0.844
140 | RRIRQRPPRLPRPRPRPVIDPRP | -0.016
141 | RRIRKRPPRLPRPRPRPKTNPRP | 0.485
142 | RRIRMRPPRLPRPRPRPGKWPRP | 0.204
143 | RRIRKRPPRLPRPRPRPPSHPRP | 0.543
144 | RRIRWRPPRLPRPRPRPKFRPRP | 0.077
145 | RRIRTRPPRLPRPRPRPGNHPRP | -0.731
146 | RRIRLRPPRLPRPRPRPTMDPRP | -0.0334
147 | RRIRCRPPRLPRPRPRPHGAPRP | 0.0255
148 | RRIRNRPPRLPRPRPRPRCWPRP | 0.108
149 | RRIRKRPPRLPRPRPRPVSGPRP | 0.233
150 | RRIRARPPRLPRPRPRPVVKPRP | 0.298
